Assay results: US6479032 (DIATIDE, dated 2002)
Starred links: 1 amine or outer side, 2 acyl side, 3 side chain; linkers in the order of their positions; H or OH if unused. Positions of bridges follow the written chain, without caps; N, C: chain ends. Non-standard residues stand in square brackets, D forms with d. Groups on a side chain read outwards from the residue. No end group written: not given here. Hhc = homohomocysteine, O=C([C@H](CCCS[*:3])N[*:1])[*:2]; εLys = N[C@@H](CCCCN[*:1])C(=O)[*:2]; Asu = N[C@@H](CCCCCC(=O)O)C(=O)O; hCys = N[C@@H](CCS)C(=O)O

B1: CH2CO.SNLST.Cys.VLGKLSC(CH2CO.(ε-K)GCE.amide)ELHKLQTYPRTNTGSGTP.amide•ReO (peptide)
peptide: {CH2CO}-SNLSTCVLGKLSC([CH2CO-εLys-Gly-Cys-Glu-NH2])ELHKLQTYPRTNTGSGTP-NH2
modifications: thioether N-6; also: ReO complex
notes: Oxorhenium complex; also called Peptide 14 ReO complex
B2: CH2CO.SNLST.Hhc.VLGKLSC(CH2CO.(ε-K)GCE.amide)ELHKLQTYPRTNTGSGTP.amide•ReO (peptide)
peptide: {CH2CO}-SNLST[Hhc]VLGKLSC([CH2CO-εLys-Gly-Cys-Glu-NH2])ELHKLQTYPRTNTGSGTP-NH2
modifications: thioether N-6; also: ReO complex of chelator on Cys13
notes: Oxorhenium complex; also called Peptide 6 ReO complex
B3: SNLST.Asu.VLGKLSC(CH2CO.(β-Dap)KCK.amide)ELHKLQTYPRTNTGSGTP.amide•ReO (peptide)
peptide: SNLST[Asu]VLGKLSC([CH2CO-βDap-Lys-Cys-Lys-NH2])ELHKLQTYPRTNTGSGTP-NH2
modifications: lactam N-6; also: ReO complex of chelator on Cys13
notes: Oxorhenium complex; also called Peptide 16 ReO complex
B4: CH2CO.SNLST.Hcy.VLGKLSC(CH2CO.GGCK.amide)ELHKLQTYPRTNTGSGTP.amide•ReO (peptide)
peptide: {CH2CO}-SNLST[hCys]VLGKLSC([CH2CO-Gly-Gly-Cys-Lys-NH2])ELHKLQTYPRTNTGSGTP-NH2
modifications: thioether N-6; also: ReO complex of chelator on Cys13
notes: Oxorhenium complex; also called Peptide 8 ReO complex
B5: CH2CO.SNLST.Cys.VLGKLSC(CH2CO.GGCK.amide)ELHKLQTYPRTNTGSGTP.amide•ReO (peptide)
peptide: {CH2CO}-SNLSTCVLGKLSC([CH2CO-Gly-Gly-Cys-Lys-NH2])ELHKLQTYPRTNTGSGTP-NH2
modifications: thioether N-6; also: ReO complex
notes: Oxorhenium complex; also called Peptide 12 ReO complex
B6: CH2CO.SNLST.Cys.VLGKLSC(CH2CO.(β-Dap)KCK.amide)ELHKLQTYPRTNTGSGTP.amide•ReO (peptide)
peptide: {CH2CO}-SNLSTCVLGKLSC([CH2CO-βDap-Lys-Cys-Lys-NH2])ELHKLQTYPRTNTGSGTP-NH2
modifications: thioether N-6; also: ReO complex
notes: Oxorhenium complex; also called Peptide 13 ReO complex
B7: SNLST.Asu.VLGKLSC(CH2CO.(β-Dap)KCK.amide)ELHKLQTYPRTDVGAGTP.amide•ReO (peptide)
peptide: SNLST[Asu]VLGKLSC([CH2CO-βDap-Lys-Cys-Lys-NH2])ELHKLQTYPRTDVGAGTP-NH2
modifications: lactam N-6; also: ReO complex of chelator on Cys13
notes: Oxorhenium complex; also called Peptide 18 ReO complex
B8: CH2CO.SNLST.Hcy.VLGKLSC(CH2CO.(ε-K)GCE.amide)ELHKLQTYPRTNTGSGTP.amide•ReO (peptide)
peptide: {CH2CO}-SNLST[hCys]VLGKLSC([CH2CO-εLys-Gly-Cys-Glu-NH2])ELHKLQTYPRTNTGSGTP-NH2
modifications: thioether N-6; also: ReO complex of chelator on Cys13
notes: Oxorhenium complex; also called Peptide 10 ReO complex
B9: CH2CO.SNLST.Hcy.VLGKLSC(CH2CO.(β-Dap)KCK.amide)ELHKLQTYPRTNTGSGTP.amide•ReO (peptide)
peptide: {CH2CO}-SNLST[hCys]VLGKLSC([CH2CO-βDap-Lys-Cys-Lys-NH2])ELHKLQTYPRTNTGSGTP-NH2
modifications: thioether N-6; also: ReO complex of chelator on Cys13
notes: Oxorhenium complex; also called Peptide 9 ReO complex
B10: CSNLSTCVLGKLSQELHKLQTYPRTNTGSGTP-NH2 (salmon calcitonin) (ligand)
peptide: CSNLSTCVLGKLSQELHKLQTYPRTNTGSGTP-NH2
modifications: disulfide 1-7
notes: Unlabeled salmon calcitonin, bought (Sigma); also called salmon CT; sCT

These binders were tested against T1, CT receptor of human breast tumor cell lines T-47D and MCF-7 (human, UniProt P30988 25-474) (assay: displacement of 125I-salmon CT, T-47D cell membranes).
T1 construct: whole, on cells; Native receptor; also called calcitonin receptor
T1 sequence (looked up): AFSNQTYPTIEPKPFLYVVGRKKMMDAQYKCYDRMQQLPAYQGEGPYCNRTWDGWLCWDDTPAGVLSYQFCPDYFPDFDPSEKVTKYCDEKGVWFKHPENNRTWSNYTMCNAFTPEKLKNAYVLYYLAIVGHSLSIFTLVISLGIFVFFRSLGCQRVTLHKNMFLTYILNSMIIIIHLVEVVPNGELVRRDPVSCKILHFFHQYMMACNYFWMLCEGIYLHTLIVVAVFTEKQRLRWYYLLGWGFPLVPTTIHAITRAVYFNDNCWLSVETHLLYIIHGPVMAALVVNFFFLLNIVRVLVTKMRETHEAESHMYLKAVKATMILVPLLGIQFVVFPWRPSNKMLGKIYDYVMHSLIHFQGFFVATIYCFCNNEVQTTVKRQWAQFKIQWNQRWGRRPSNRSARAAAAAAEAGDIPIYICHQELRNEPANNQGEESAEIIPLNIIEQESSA
From the text: (§1) Assays using microsomal membrane fractions of rat brain and T47D cells (obtained from the American Type Culture Collection, Rockville, Md., ATCC Accession No. HTB-133) were used to identify analogs with high affinity for the CT receptor according to the method of Fisher et al. (1977, *British J. Cancer* 35: 777–784). Briefly, tissue was minced and homogenized. The membranes were washed several times, assayed for protein content and used in the binding assay. […] Both uncomplexed and ReO complexed reagents were tested.
(§2) Similar experiments were performed with additional peptide reagents within the scope of the invention, using whole cells. Binding was determined as described above.

| Binder | IC50 |
| --- | --- |
| {CH2CO}-SNLST[Hhc]VLGKLSCELHKLQTYPRTNTGSGTP-NH2 (thioether N-6, also called Peptide 3) [CH2CO.SNLST.Hhc.VLGKLSCELHKLQTYPRTNTGSGTP.amide] | 1.6 nM |
| {CH2CO}-SNLST[Hhc]VLGKLSC([CH2CO-Gly-Gly-Cys-Lys-NH2])ELHKLQTYPRTNTGSGTP-NH2 (thioether N-6, also called Peptide 4) [CH2CO.SNLST.Hhc.VLGKLSC(CH2CO.GGCK.amide)ELHKLQTYPRTNTGSGTP.amide] | 2.6 nM |

These binders were tested against T1, CT receptor of human breast tumor cell … (assay: displacement of 125I-salmon CT, whole T-47D cells).
From the text: as §1, §2

| Binder | IC50 |
| --- | --- |
| B1 | 2.6 nM |
| B2 | 0.33 nM |
| B3 | 2.7 nM |
| B4 | 0.83 nM |
| B5 | 1 nM |
| B6 | 2.9 nM |
| {CH2CO}-SNLST[Hhc]VLGKLSC([CH2CO-βDap-Lys-Cys-Lys-NH2])ELHKLQTYPRTNTGSGTP-NH2 (thioether N-6, also called Peptide 5) [CH2CO.SNLST.Hhc.VLGKLSC(CH2CO.(β-Dap)KCK.amide)ELHKLQTYPRTNTGSGTP.amide] | 0.42 nM |
| B7 | 0.55 nM |
| B8 | 0.89 nM |
| B9 | 0.84 nM |

These binders were tested against T1, CT receptor of human breast tumor cell … (assay: displacement of 125I-salmon CT, whole MCF-7 cells).
From the text: as §1, §2

| Binder | IC50 |
| --- | --- |
| B1 | 1.9 nM |
| B2 | 3.3 nM |
| B3 | 8 nM |
| B4 | 4.8 nM |
| B5 | 5.2 nM |
| {CH2CO}-SNLST[Hhc]VLGKLSC([CH2CO-βDap-Lys-Cys-Lys-NH2])ELHKLQTYPRTNTGSGTP-NH2 (thioether N-6, also called Peptide 5) [CH2CO.SNLST.Hhc.VLGKLSC(CH2CO.(β-Dap)KCK.amide)ELHKLQTYPRTNTGSGTP.amide] | 5.8 nM |
| B7 | 7 nM |
| B10 | 12.3 nM |
